{"source": "paper PMC3260182", "about": "“Stabilisation of the Fc Fragment of Human IgG1 by Engineered Intradomain Disulfide Bonds” (PLoS ONE, 2012)", "target": "the molecule itself", "assay": "SEC; size-exclusion HPLC, TSK G3000 SWXL column, PBS with 200 mM NaCl, 1 ml/min, 50 ug protein at about 1 mg/ml; native conditions; molecular weight standards", "data": [{"protein": "Fc fragment of human IgG1 with the CysP2 and CysP4 disulfide bonds combined (domain or fragment, N-linked glycosylation at residue Asn297; engineered intradomain disulfide bonds between Cys343 and Cys431 and between Cys375 and Cys396, 2 extra amino acid residues at the N-terminal site due to the EcoRI site used for cloning; the substitutions are still to be applied; Fc fragment of the human IgG1 heavy chain constant region in which the CysP2 and CysP4 mutations are combined; the first letter T is position 225. numbers count on: Kabat EU numbering; Primers are in File S1; also called CysP24; FcCysP24; source: Pichia pastoris …) EFTCPPCPAPELLGGPSVFLFPPKPKDTLMISRTPEVTCVVVDVSHEDPEVKFNWYVDGVEVHNAKTKPREEQYNSTYRVVSVLTVLHQDWLNGKEYKCKVSNKALPAPIEKTISKAKGQCREPQVYTLPPSRDELTKNQVSLTCLVKGFYPCDIAVEWESNGQPENNYKTTPCVLDSDGSFFLYSKLTVDKSRWQQGNVFSCSVMHECLHNHYTQKSLSLSPGK", "values": [{"measurement": "stoichiometry N", "value": 2}]}]}
